From IntAct's records for PubMed 17986610 come the findings set out here.

One assay concerns the target trcb_xenla fbxw1 (UniProt Q91854).
The next assay addresses plk1_xenla plk1 (UniProt P70032).

Cytoplasmic polyadenylation element-binding protein 1-A (Xenopus laevis (African clawed frog)), Q91572 T125A, sequence (Q91572 whole entry T125A): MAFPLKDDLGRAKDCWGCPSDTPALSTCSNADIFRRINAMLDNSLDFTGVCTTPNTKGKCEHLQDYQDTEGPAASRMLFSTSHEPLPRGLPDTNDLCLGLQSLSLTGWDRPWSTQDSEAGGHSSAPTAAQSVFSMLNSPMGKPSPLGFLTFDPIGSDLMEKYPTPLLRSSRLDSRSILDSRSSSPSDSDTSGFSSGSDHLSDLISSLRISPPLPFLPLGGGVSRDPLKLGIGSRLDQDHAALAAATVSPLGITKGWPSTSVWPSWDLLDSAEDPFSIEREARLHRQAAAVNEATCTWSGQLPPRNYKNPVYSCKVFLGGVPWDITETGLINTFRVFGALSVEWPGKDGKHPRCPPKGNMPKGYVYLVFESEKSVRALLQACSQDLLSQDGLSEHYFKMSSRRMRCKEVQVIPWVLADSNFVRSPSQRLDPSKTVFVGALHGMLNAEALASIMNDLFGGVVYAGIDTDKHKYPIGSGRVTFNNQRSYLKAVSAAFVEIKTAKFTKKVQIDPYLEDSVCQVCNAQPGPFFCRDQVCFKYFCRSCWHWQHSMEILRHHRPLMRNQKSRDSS
plk1_xenla plk1, sequence (P70032 whole entry): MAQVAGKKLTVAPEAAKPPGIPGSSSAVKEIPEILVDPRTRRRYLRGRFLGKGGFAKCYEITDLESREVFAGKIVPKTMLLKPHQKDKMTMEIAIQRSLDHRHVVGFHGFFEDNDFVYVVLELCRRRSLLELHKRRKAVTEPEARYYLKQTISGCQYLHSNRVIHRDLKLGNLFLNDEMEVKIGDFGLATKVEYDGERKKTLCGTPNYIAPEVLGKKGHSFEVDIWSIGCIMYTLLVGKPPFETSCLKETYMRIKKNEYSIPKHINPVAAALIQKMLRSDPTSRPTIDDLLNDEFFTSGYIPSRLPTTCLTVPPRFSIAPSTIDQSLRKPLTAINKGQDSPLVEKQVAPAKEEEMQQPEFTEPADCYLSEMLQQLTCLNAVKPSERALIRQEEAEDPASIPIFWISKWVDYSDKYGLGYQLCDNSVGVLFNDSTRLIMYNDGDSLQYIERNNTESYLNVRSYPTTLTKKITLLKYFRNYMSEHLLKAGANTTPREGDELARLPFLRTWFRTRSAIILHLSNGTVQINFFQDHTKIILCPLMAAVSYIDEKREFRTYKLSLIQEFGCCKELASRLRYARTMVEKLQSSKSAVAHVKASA
trcb_xenla fbxw1, sequence (Q91854 whole entry): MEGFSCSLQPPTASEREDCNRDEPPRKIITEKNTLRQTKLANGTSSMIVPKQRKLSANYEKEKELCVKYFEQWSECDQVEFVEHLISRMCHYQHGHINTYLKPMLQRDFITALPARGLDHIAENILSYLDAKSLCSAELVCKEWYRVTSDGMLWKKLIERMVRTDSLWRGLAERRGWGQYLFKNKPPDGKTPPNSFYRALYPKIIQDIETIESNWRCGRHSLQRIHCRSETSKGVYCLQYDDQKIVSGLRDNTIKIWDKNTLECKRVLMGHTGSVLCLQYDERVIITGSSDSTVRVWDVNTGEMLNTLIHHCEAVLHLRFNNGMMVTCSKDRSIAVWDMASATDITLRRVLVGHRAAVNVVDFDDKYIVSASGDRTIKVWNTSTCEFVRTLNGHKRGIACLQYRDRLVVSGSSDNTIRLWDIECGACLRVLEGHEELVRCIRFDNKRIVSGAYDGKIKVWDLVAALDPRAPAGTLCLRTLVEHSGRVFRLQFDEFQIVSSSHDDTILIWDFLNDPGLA
Cytoplasmic polyadenylation element-binding protein 1-A (Xenopus laevis (African clawed frog)), Q91572 G192A, sequence (Q91572 whole entry G192A): as the sequence (Q91572 whole entry T125A) above, with A125T, G192A counted along it

For “Cytoplasmic polyadenylation element-binding protein 1-A (Xenopus laevis (African clawed frog)), Q91572 G192A”, the “effect of a mutation on the interaction” value in the assay with trcb_xenla fbxw1 is recorded as “decreasing interaction”.

On to “Cytoplasmic polyadenylation element-binding protein 1-A (Xenopus laevis (African clawed frog)), Q91572 T125A”, for which the “effect of a mutation on the interaction” value with plk1_xenla plk1 is “decreasing interaction”.
